This assay has as its target T1, Human recombinant HDAC3 (human, UniProt O15379 1-428).
T1 construct: human recombinant HDAC3 (Biomol); No catalogue number, host or tag is printed for the bought protein; also called recombinant human HDAC3; source: bought: Biomol
Kind of assay: pull-down; recombinant HDAC3 (8 ug) incubated with recombinant H1.3 (4 ug), overnight at 4 C; pulled down with anti-HDAC3 antibody and protein A/G-agarose; SDS-PAGE, Coomassie staining. The note with it: both partners purified.

T1 sequence (O15379 whole entry): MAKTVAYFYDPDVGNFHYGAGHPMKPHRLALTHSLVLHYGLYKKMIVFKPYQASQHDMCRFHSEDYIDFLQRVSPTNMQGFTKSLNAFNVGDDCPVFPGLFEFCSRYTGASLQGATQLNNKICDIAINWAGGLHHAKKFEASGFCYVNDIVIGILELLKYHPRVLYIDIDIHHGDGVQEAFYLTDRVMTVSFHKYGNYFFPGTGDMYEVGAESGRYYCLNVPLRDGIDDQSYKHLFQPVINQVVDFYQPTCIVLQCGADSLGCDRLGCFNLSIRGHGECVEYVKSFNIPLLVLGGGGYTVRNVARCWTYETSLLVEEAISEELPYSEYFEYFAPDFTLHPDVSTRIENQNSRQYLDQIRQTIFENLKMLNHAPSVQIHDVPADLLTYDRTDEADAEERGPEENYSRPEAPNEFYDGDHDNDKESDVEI

B1: Human recombinant H1.3 (natural protein, UniProt P16402 1-221, looked up)
chain: MSETAPLAPTIPAPAEKTPVKKKAKKAGATAGKRKASGPPVSELITKAVAASKERSGVSLAALKKALAAAGYDVEKNNSRIKLGLKSLVSKGTLVQTKGTGASGSFKLNKKAASGEGKPKAKKAGAAKPRKPAGAAKKPKKVAGAATPKKSIKKTPKKVKKPATAAGTKKVAKSAKKVKTPQPKKAAKSPAKAKAPKPKAAKPKSGKPKVTKAKKAAPKKK
notes: human recombinant histone H1.3 (Alexis Biochemicals); No catalogue number, host or tag is printed for the bought protein; also called recombinant human histone H1.3; source: bought: Alexis Biochemicals
Regarding B1, the binding result is on record as “binds”.

The values above are taken from PMC4751364, “Mitotic Activation of a Novel Histone Deacetylase 3-Linker Histone H1.3 Protein Complex by Protein Kinase CK2*” (The Journal of Biological Chemistry, 2015).
